# Laboratory results reported in patent US20200397860A1, “SLIT AND BONE GROWTH MODULATION” (Cornell University, priority 2018, published 2020).
# “Also recorded” adds a separate entry of the source.
# B1: SLIT3: SLIT3 recombinant protein (R&D); secreted ligand of ROBO receptors (protein, UniProt O75094 34-1523, looked up)
# Slit homolog 3 protein: CPTKCTCSAASVDCHGLGLRAVPRGIPRNAERLDLDRNNITRITKMDFAGLKNLRVLHLEDNQVSVIERGAFQDLKQLERLRLNKNKLQVLPELLFQSTPKLTRLDLSENQIQGIPRKAFRGITDVKNLQLDNNHISCIEDGAFRALRDLEILTLNNNNISRILVTSFNHMPKIRTLRLHSNHLYCDCHLAWLSDWLRQRRTVGQFTLCMAPVHLRGFNVADVQKKEYVCPAPHSEPPSCNANSISCPSPCTCSNNIVDCRGKGLMEIPANLPEGIVEIRLEQNSIKAIPAGAFTQYKKLKRIDISKNQISDIAPDAFQGLKSLTSLVLYGNKITEIVKGLFDGLVSLQLLLLNANKINCLRVNTFQDLQNLNLLSLYDNKLQTISKGLFAPLQSIQTLHLAQNPFVCDCHLKWLADYLQDNPIETSGARCSSPRRLANKRISQIKSKKFRCSGSEDYRSRFSSECFMDLVCPEKCRCEGTIVDCSNQKLVRIPSHLPEYVTDLRLNDNEVSVLEATGIFKKLPNLRKINLSNNKIKEVREGAFDGAASVQELMLTGNQLETVHGRVFRGLSGLKTLMLRSNLIGCVSNDTFAGLSSVRLLSLYDNRITTITPGAFTTLVSLSTINLLSNPFNCNCHLAWLGKWLRKRRIVSGNPRCQKPFFLKEIPIQDVAIQDFTCDGNEESSCQLSPRCPEQCTCMETVVRCSNKGLRALPRGMPKDVTELYLEGNHLTAVPRELSALRHLTLIDLSNNSISMLTNYTFSNMSHLSTLILSYNRLRCIPVHAFNGLRSLRVLTLHGNDISSVPEGSFNDLTSLSHLALGTNPLHCDCSLRWLSEWVKAGYKEPGIARCSSPEPMADRLLLTTPTHRFQCKGPVDINIVAKCNACLSSPCKNNGTCTQDPVELYRCACPYSYKGKDCTVPINTCIQNPCQHGGTCHLSDSHKDGFSCSCPLGFEGQRCEINPDDCEDNDCENNATCVDGINNYVCICPPNYTGELCDEVIDHCVPELNLCQHEAKCIPLDKGFSCECVPGYSGKLCETDNDDCVAHKCRHGAQCVDTINGYTCTCPQGFSGPFCEHPPPMVLLQTSPCDQYECQNGAQCIVVQQEPTCRCPPGFAGPRCEKLITVNFVGKDSYVELASAKVRPQANISLQVATDKDNGILLYKGDNDPLALELYQGHVRLVYDSLSSPPTTVYSVETVNDGQFHSVELVTLNQTLNLVVDKGTPKSLGKLQKQPAVGINSPLYLGGIPTSTGLSALRQGTDRPLGGFHGCIHEVRINNELQDFKALPPQSLGVSPGCKSCTVCKHGLCRSVEKDSVVCECRPGWTGPLCDQEARDPCLGHRCHHGKCVATGTSYMCKCAEGYGGDLCDNKNDSANACSAFKCHHGQCHISDQGEPYCLCQPGFSGEHCQQENPCLGQVVREVIRRQKGYASCATASKVPIMECRGGCGPQCCQPTRSKRRKYVFQCTDGSSFVEEVERHLECGCLACS
# How the values were obtained:
# [1] = tested on: human mesenchymal stromal cells; assay: ALP activity assay after 6 days of osteogenic culture; format: cell-based; conditions: different doses
# Method: Primary calvarial osteoblasts were isolated from five-day-old mice by triple collagenase/dispase II digestion. Cells were cultured in α-MEM medium (Gibco) containing 10% FBS, 2 mM L-glutamine, 1% penicillin/streptomycin, 1% Hepes, and 1% nonessential amino acids and differentiated with ascorbic acid and β-glycerophosphate. Conditioned medium was collected from culture of primary osteoblasts and stocked at −80° C. hMSCs were cultured and differentiated into osteoblasts using a commercial kit (Cyagen). All cells were routinely tested to be mycoplasma negative.
# For staining of extracellular matrix mineralization, cells were fixed with 10% neutral buffered formalin and stained with alizarin red. Mineralization activity was measured by colorimetric analysis. For alkaline phosphatase (ALP) activity, osteoblasts were fixed with 10% neutral formalin buffer and stained with the solution containing Fast Blue and Naphthol (Sigma-Aldrich). Alternatively, osteoblasts were incubated with 10-fold diluted Alamar Blue solution, washed, and incubated with a solution containing 6.5 mM Na2CO3, 18.5 mM NaHCO3, 2 mM MgCl2, and phosphatase substrate (Sigma-Aldrich). ALP activity was measured by a spectrophotometer (Thermo).
# [2] = tested on: bone marrow macrophages (BMMs); assay: In vitro osteoclast formation assay with RANKL and recombinant SLIT3; format: cell-based, mouse
# Method: Murine bone marrow cells were flushed from the femur and tibia of mice and cultured in petri dishes in α-MEM medium with 10% FBS and 20 ng/ml of rM-CSF. Nonadherent cells were replated into tissue culture dishes and cultured in the same medium for 3 d to obtain osteoclast precursors. The osteoclast precursors then differentiated into osteoclasts in the presence of human RAMKL (50 ng/ml; PeproTech) and M-CSF for 3 days. Peripheral blood mononuclear cells from the whole blood of healthy volunteers were isolated by density gradient centrifugation using Ficoll (Invitrogen, Carlsbad, Calif.). CD14-positive cells were purified from fresh PBMCs using anti-CD14 magnetic beads (Miltenyi Biotec, Auburn, Calif.), as recommended by the manufacturer. Human monocytes were cultured in a-MEM with 10% FBS in the presence of M-CSF (20 ng/ml; PeproTech, Rocky Hill, N.J.) for 2 d to obtain monocyte-derived macrophages. Experiments with human cells were approved by the Hospital for Special Surgery Institutional Review Board.
# Osteoclast culture, differentiation assays. Western Molting and qPCR. In vitro primary osteoclast cultures, quantitative PCR, Western blotting, and TRAP staining were performed as previously described. Primary antibodies were specific for SLIT3. (1:1,000; Cell Signaling) and HSP90 (1:2,000; Sigma).
# [3] = tested on: bone marrow derived EPOCs; assay: Alamar blue based proliferation assay; format: cell-based, mouse
# Method: Mouse bone marrow derived late-stage endothelial progenitor outgrowth cells (EPOCs) were obtained from BioChain (7030031) and cultured in growth medium (BioChain Z7030035) as described previously (Xie et al. 2014). Endothelial cell migration assay was set up in Trans well-24 well plates with 8-um pore filters. Briefly, 1×10^5 cells/well after 1-hour serum starvation were seeded in the upper chamber, then incubated with conditioned medium from osteoblasts and control in the lower chambers for a further 3 h. The cells in the upper surface of each filter were removed with cotton swabs. The cells that migrated into the lower surface were fixed with 4% PFA for 30 min and then stained with crystal violet. The cell numbers were quantified by counting a centered microscope field per each filter (5 wells for each condition). […] The width of the wound area was quantitatively evaluated using ImageJ (see website at rsb.info.uih.gov/ij/download.html). […] At 0, 24, 48 hours after seeding, cells were incubated with 10-fold diluted Alamar Blue solution (Thermo Fisher) and the supernatant was evaluated with a spectrophotometer (Thermo) (5 wells for each condition). […] Alter 5 hours incubation at 37° C., the number of tube branches each well was observed and quantified by counting four random fields per well with microscopy (5 wells for each condition).
molecule,measurement,setting,value
B1,osteoblast activation / differentiation (ALP activity),[1],did not enhance osteoblast activation; also recorded: does not directly regulate osteoblast differentiation or activity
same,number of TRAP positive osteoclasts compared with controls,"[2]; BMMs with RANKL and recombinant SLIT3, three days",no significant changes
same,expression of osteoclast marker genes,"[2]; BMMs with RANKL, three days",modestly inhibited
same,proliferation,[3],modestly increased the proliferation
